Measurements reported in paper PMC8117407.

Molecular target: mXFP-TpoR (thrombopoietin receptor N-terminally fused to nonfluorescent mEGFP Tyr66Phe) (UniProt P40238)
Assay: live-cell micropatterning with FRAP

Question: For JAK2 FS L224E (domain or fragment), which fold reduction of binding stability against JAK2 FS wt is on record?
Answer: 20 fold
